Values of other authors in US20100209353A1, “TUMOR TARGETING PROTEIN CONJUGATE AND A METHOD FOR PREPARING THE SAME” (KOREA INSTITUTE OF SCIENCE AND TECHNOLOGY, priority 2009, published 2010).

Details: conventional albumin

## albumin
  particle size: 2˜5 nm
